For assay [1], the target named is interleukin 1 receptor (on human peripheral blood leukocytes RPMI 1788) (human (cells are stated to be human)) (UniProt P14778). The assay can be described thus: cell-based or functional assay.
The next assay has as its target alpha-amylase. The assay can be described thus: cell-based or functional assay.

These results are taken from patent US20130143802A1.

Sequence of UniProt P14778 (P14778 18-569): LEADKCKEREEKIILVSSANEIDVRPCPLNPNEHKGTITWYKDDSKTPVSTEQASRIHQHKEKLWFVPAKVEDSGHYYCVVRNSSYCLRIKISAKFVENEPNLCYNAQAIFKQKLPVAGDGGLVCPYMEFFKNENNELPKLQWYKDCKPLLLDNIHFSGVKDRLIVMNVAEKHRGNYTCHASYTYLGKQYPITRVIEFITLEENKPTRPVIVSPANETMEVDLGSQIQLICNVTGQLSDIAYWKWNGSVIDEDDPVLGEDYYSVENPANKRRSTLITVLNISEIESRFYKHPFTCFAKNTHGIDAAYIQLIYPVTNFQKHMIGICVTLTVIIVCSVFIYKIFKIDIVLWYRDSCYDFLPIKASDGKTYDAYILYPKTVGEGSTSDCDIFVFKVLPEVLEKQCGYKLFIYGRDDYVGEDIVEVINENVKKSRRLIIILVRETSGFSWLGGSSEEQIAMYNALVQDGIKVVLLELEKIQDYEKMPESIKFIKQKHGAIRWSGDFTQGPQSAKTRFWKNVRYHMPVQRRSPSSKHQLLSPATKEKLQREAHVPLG

“ELP/IL-1Ra fusion protein (ELP1 [V5A2G3-90] - … - interleukin 1 receptor antagonist) (from UniProt P18510 26-177)”: the specific activity: EC50 value in µg/mL, inhibition of proliferation of RPMI 1788 cells (CellTiter Glo assay) in assay [1] was found to be 0.5 µg/mL.

“IL-1Ra/ELP fusion protein (interleukin 1 receptor antagonist - … - ELP1 [V5A2G3-90]) (from UniProt P18510 26-177)”: in assay [1], the potency relative to ELP/IL-1Ra in the cell proliferation assay is 4 fold and the specific activity: EC50 value in µg/mL, inhibition of proliferation of RPMI 1788 cells (CellTiter Glo assay) stood at 2 µg/mL.

In the assay with alpha-amylase, “ternary thioredoxin-ELP-tendamistat fusion (thioredoxin/90-mer ELP/tendamistat) (from UniProt P01092 31-104)” had a α-amylase inhibition activity (colorimetric α-amylase inhibition assay) of 2 fold. Take “un-fused, commercially available interleukin 1 receptor antagonist (from UniProt P18510 26-177) (ligand)”: in assay [1], the EC50, inhibition of proliferation of RPMI 1788 cells (CellTiter Glo assay) came to 0.0016 µg/mL and the activity relative to IL-1Ra/ELP in the cell proliferation assay was 300 fold.
